Tested on: Escherichia coli TOP10
Experiment: shrunken log2 fold change of peptide-encoding DNA abundance (4.5 h post-induction vs induction); higher = less antimicrobial activity (less host growth inhibition)
Details: time post-induction: 4.5 h; library: site-saturation at positions 5, 18, 19, 20
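Also: peptides expressed intracellularly from a pBAD plasmid library in pooled LB shake-flask culture, induced with 0.3% L-arabinose, DNA abundance read by NGS, three biological replicates, DESeq2 with apeglm shrinkage.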

## RRIRLRPPRLPRPRPRPVTVPRP
  shrunken log2 fold change: -0.128

## RRIRYRPPRLPRPRPRPDASPRP
  shrunken log2 fold change: -0.00663

## RRIRGRPPRLPRPRPRPAEFPRP
  shrunken log2 fold change: 0.69

## RRIRGRPPRLPRPRPRPRTIPRP
  shrunken log2 fold change: 0.375

## RRIRFRPPRLPRPRPRPPCRPRP
  shrunken log2 fold change: 0.172

## RRIRYRPPRLPRPRPRPCRTPRP
  shrunken log2 fold change: -0.651

## RRIRVRPPRLPRPRPRPVYTPRP
  shrunken log2 fold change: -0.324

## RRIRKRPPRLPRPRPRPPFCPRP
  shrunken log2 fold change: -0.0397

## RRIRPRPPRLPRPRPRPRWDPRP
  shrunken log2 fold change: -0.0161

## RRIRDRPPRLPRPRPRPDHKPRP
  shrunken log2 fold change: -0.119

## RRIRHRPPRLPRPRPRPTLQPRP
  shrunken log2 fold change: -0.0103

## RRIRKRPPRLPRPRPRPASNPRP
  shrunken log2 fold change: 0.147

## RRIRQRPPRLPRPRPRPFQWPRP
  shrunken log2 fold change: 0.0154

## RRIRYRPPRLPRPRPRPIETPRP
  shrunken log2 fold change: -0.0177

## RRIRRRPPRLPRPRPRPNTNPRP
  shrunken log2 fold change: -0.22

## RRIRFRPPRLPRPRPRPYYHPRP
  shrunken log2 fold change: -0.146

## RRIRQRPPRLPRPRPRPNHAPRP
  shrunken log2 fold change: -0.474

## RRIRLRPPRLPRPRPRPAKLPRP
  shrunken log2 fold change: -0.0675

## RRIRARPPRLPRPRPRPEYRPRP
  shrunken log2 fold change: 0.0382

## RRIRDRPPRLPRPRPRPQRHPRP
  shrunken log2 fold change: 0.0682

## RRIRNRPPRLPRPRPRPRFGPRP
  shrunken log2 fold change: 0.399

## RRIRGRPPRLPRPRPRPAATPRP
  shrunken log2 fold change: 3.06

## RRIRHRPPRLPRPRPRPFPMPRP
  shrunken log2 fold change: -0.651

## RRIRFRPPRLPRPRPRPAYGPRP
  shrunken log2 fold change: -0.41

## RRIRTRPPRLPRPRPRPFHFPRP
  shrunken log2 fold change: -0.303

## RRIRKRPPRLPRPRPRPCIIPRP
  shrunken log2 fold change: -0.108

## RRIRNRPPRLPRPRPRPIAYPRP
  shrunken log2 fold change: -0.0604

## RRIRSRPPRLPRPRPRPTPVPRP
  shrunken log2 fold change: 0.381

## RRIRARPPRLPRPRPRPGKCPRP
  shrunken log2 fold change: 0.0981

## RRIRTRPPRLPRPRPRPRQLPRP
  shrunken log2 fold change: 0.187

## RRIRTRPPRLPRPRPRPRSDPRP
  shrunken log2 fold change: 0.0841

## RRIRMRPPRLPRPRPRPFDRPRP
  shrunken log2 fold change: 0.00911

## RRIRNRPPRLPRPRPRPDQLPRP
  shrunken log2 fold change: 0.0418

## RRIRERPPRLPRPRPRPAGTPRP
  shrunken log2 fold change: 0.346

## RRIRPRPPRLPRPRPRPWRPPRP
  shrunken log2 fold change: 0.12

## RRIRFRPPRLPRPRPRPDHGPRP
  shrunken log2 fold change: 0.0405

## RRIRIRPPRLPRPRPRPEGWPRP
  shrunken log2 fold change: 0.497

## RRIRYRPPRLPRPRPRPRFCPRP
  shrunken log2 fold change: -0.17

## RRIRQRPPRLPRPRPRPHQSPRP
  shrunken log2 fold change: 0.0405

## RRIRDRPPRLPRPRPRPDQKPRP
  shrunken log2 fold change: -0.0052

## RRIRWRPPRLPRPRPRPMGSPRP
  shrunken log2 fold change: -0.0192

## RRIRPRPPRLPRPRPRPHKQPRP
  shrunken log2 fold change: -0.022

## RRIRYRPPRLPRPRPRPVHMPRP
  shrunken log2 fold change: -0.0179

## RRIRDRPPRLPRPRPRPVHVPRP
  shrunken log2 fold change: 0.0158

## RRIRYRPPRLPRPRPRPYYGPRP
  shrunken log2 fold change: -0.0846

## RRIRYRPPRLPRPRPRPGCWPRP
  shrunken log2 fold change: 0.289

## RRIRGRPPRLPRPRPRPTSFPRP
  shrunken log2 fold change: 0.449

## RRIRIRPPRLPRPRPRPLKEPRP
  shrunken log2 fold change: -0.568

## RRIRCRPPRLPRPRPRPLGPPRP
  shrunken log2 fold change: 0.106

## RRIRMRPPRLPRPRPRPAREPRP
  shrunken log2 fold change: 1.86

## RRIRFRPPRLPRPRPRPMFHPRP
  shrunken log2 fold change: -0.473

## RRIRMRPPRLPRPRPRPAMSPRP
  shrunken log2 fold change: 0.177

## RRIRHRPPRLPRPRPRPGNHPRP
  shrunken log2 fold change: -0.161

## RRIRKRPPRLPRPRPRPHFLPRP
  shrunken log2 fold change: 0.12

## RRIRLRPPRLPRPRPRPRLAPRP
  shrunken log2 fold change: 0.624

## RRIRSRPPRLPRPRPRPEEGPRP
  shrunken log2 fold change: 0.0515

## RRIRNRPPRLPRPRPRPTHGPRP
  shrunken log2 fold change: -0.0213

## RRIRLRPPRLPRPRPRPNTPPRP
  shrunken log2 fold change: -0.187

## RRIRCRPPRLPRPRPRPKNPPRP
  shrunken log2 fold change: 1.17

## RRIRTRPPRLPRPRPRPDPSPRP
  shrunken log2 fold change: -0.0208

## RRIRARPPRLPRPRPRPDQLPRP
  shrunken log2 fold change: 0.421

## RRIRQRPPRLPRPRPRPQFSPRP
  shrunken log2 fold change: -0.525

## RRIRERPPRLPRPRPRPNYKPRP
  shrunken log2 fold change: -0.722

## RRIRDRPPRLPRPRPRPNCGPRP
  shrunken log2 fold change: 0.387

## RRIRTRPPRLPRPRPRPSRCPRP
  shrunken log2 fold change: 0.061

## RRIRSRPPRLPRPRPRPCLKPRP
  shrunken log2 fold change: 0.0091

## RRIRVRPPRLPRPRPRPCFHPRP
  shrunken log2 fold change: -0.395

## RRIRLRPPRLPRPRPRPFWNPRP
  shrunken log2 fold change: -0.275

## RRIRRRPPRLPRPRPRPTFWPRP
  shrunken log2 fold change: 0.436

## RRIRPRPPRLPRPRPRPWCNPRP
  shrunken log2 fold change: -0.239

## RRIRTRPPRLPRPRPRPWVHPRP
  shrunken log2 fold change: -0.0467

## RRIRRRPPRLPRPRPRPKSIPRP
  shrunken log2 fold change: -0.0792

## RRIRPRPPRLPRPRPRPAWMPRP
  shrunken log2 fold change: 0.372

## RRIRIRPPRLPRPRPRPCDLPRP
  shrunken log2 fold change: -0.011

## RRIRQRPPRLPRPRPRPDMIPRP
  shrunken log2 fold change: -0.303

## RRIRCRPPRLPRPRPRPMWGPRP
  shrunken log2 fold change: -0.214

## RRIRSRPPRLPRPRPRPTFTPRP
  shrunken log2 fold change: -0.269

## RRIRRRPPRLPRPRPRPIPFPRP
  shrunken log2 fold change: -0.175

## RRIRWRPPRLPRPRPRPLMIPRP
  shrunken log2 fold change: -0.304

## RRIRLRPPRLPRPRPRPDPSPRP
  shrunken log2 fold change: 0.0199

## RRIRPRPPRLPRPRPRPHQNPRP
  shrunken log2 fold change: -0.124

## RRIRTRPPRLPRPRPRPRSLPRP
  shrunken log2 fold change: 0.19

## RRIRLRPPRLPRPRPRPQGRPRP
  shrunken log2 fold change: -0.136

## RRIRNRPPRLPRPRPRPGGEPRP
  shrunken log2 fold change: -0.0266

## RRIRIRPPRLPRPRPRPCYIPRP
  shrunken log2 fold change: -0.27

## RRIRRRPPRLPRPRPRPSMFPRP
  shrunken log2 fold change: -0.0509

## RRIRQRPPRLPRPRPRPVDHPRP
  shrunken log2 fold change: -0.335

## RRIRRRPPRLPRPRPRPHFCPRP
  shrunken log2 fold change: 0.00733

## RRIRKRPPRLPRPRPRPHLAPRP
  shrunken log2 fold change: 0.0615

## RRIRWRPPRLPRPRPRPHKPPRP
  shrunken log2 fold change: -0.119

## RRIRARPPRLPRPRPRPAYRPRP
  shrunken log2 fold change: -0.086

## RRIRFRPPRLPRPRPRPTTTPRP
  shrunken log2 fold change: 0.212

## RRIRDRPPRLPRPRPRPYLNPRP
  shrunken log2 fold change: -0.272

## RRIRGRPPRLPRPRPRPSQHPRP
  shrunken log2 fold change: 0.0187

## RRIRVRPPRLPRPRPRPKDTPRP
  shrunken log2 fold change: -0.038

## RRIRMRPPRLPRPRPRPIKGPRP
  shrunken log2 fold change: -0.0612

## RRIRQRPPRLPRPRPRPSCHPRP
  shrunken log2 fold change: -0.253

## RRIRQRPPRLPRPRPRPWYCPRP
  shrunken log2 fold change: -1.83

## RRIRDRPPRLPRPRPRPGNEPRP
  shrunken log2 fold change: -0.159

## RRIRSRPPRLPRPRPRPPKSPRP
  shrunken log2 fold change: 0.271

## RRIRWRPPRLPRPRPRPRMNPRP
  shrunken log2 fold change: -0.111

## RRIRMRPPRLPRPRPRPFWWPRP
  shrunken log2 fold change: 0.158

## RRIRVRPPRLPRPRPRPIERPRP
  shrunken log2 fold change: 0.0557

## RRIRIRPPRLPRPRPRPHPQPRP
  shrunken log2 fold change: -0.0725

## RRIRTRPPRLPRPRPRPLICPRP
  shrunken log2 fold change: -0.277

## RRIRWRPPRLPRPRPRPKNDPRP
  shrunken log2 fold change: 0.0313

## RRIRGRPPRLPRPRPRPFFCPRP
  shrunken log2 fold change: 0.471

## RRIRLRPPRLPRPRPRPFWGPRP
  shrunken log2 fold change: -0.507

## RRIRARPPRLPRPRPRPNELPRP
  shrunken log2 fold change: 0.343

Reference: the supplement of paper PMC9112550, “Optimization of the antimicrobial peptide Bac7 by deep mutational scanning” (BMC Biology, 2022)
